Data on seven molecules can be found in PMC9427786, “Structure–function characterization of an aldo–keto reductase involved in detoxification of the mycotoxin, deoxynivalenol” (Scientific Reports, 2022).

Like-named read-outs stand apart in the source and are kept apart here.

Data set [1] concerns the target T1, DepBRleg (Rhizobium leguminosarum, UniProt J0WHR2).
T1 construct: gene Rleg4DRAFT_7458; N-terminal His-tag, pET28a (NdeI/HindIII), expressed in E. coli BL21 LOBSTR; about 39 kDa protomer; octamer
Put plainly: tryptophan fluorescence quenching. The class given is binding. An excerpt:
(§1) tryptophan fluorescence quenching on DepBRleg

Data set [2] concerns the target T2, DepBRleg (Rhizobium leguminosarum, UniProt J0WHR2, Q294E).
T2 construct: gene Rleg4DRAFT_7458; N-terminal His-tag, pET28a (NdeI/HindIII), expressed in E. coli BL21 LOBSTR; about 39 kDa protomer; octamer
Put plainly: tryptophan fluorescence quenching. The class given is binding.
Description: as §1

Data set [3] concerns the target T3, DepBRleg (Rhizobium leguminosarum, UniProt J0WHR2, R290E).
T3 construct: gene Rleg4DRAFT_7458; N-terminal His-tag, pET28a (NdeI/HindIII), expressed in E. coli BL21 LOBSTR; about 39 kDa protomer; octamer
Put plainly: tryptophan fluorescence quenching. The format is binding.
Description: as §1

In data set [4] the test system is O=C1C(=O)c2ccccc2-c2ccccc21. Put plainly: purified protein. The format is biochemical, Rhizobium leguminosarum. The following applies: pH 7.5; 25.0 °C.
The target of data set [5] is T1, DepBRleg. Kind of data set: NADPH oxidation at […] nm. The format is biochemical.
Data set [6] deals with T4, DepBRleg (Rhizobium leguminosarum, UniProt J0WHR2, K217E).
T4 construct: gene Rleg4DRAFT_7458; N-terminal His-tag, pET28a (NdeI/HindIII), expressed in E. coli BL21 LOBSTR; about 39 kDa protomer; octamer
Put plainly: tryptophan fluorescence quenching. The format is binding.
Description: as §1

The target in data set [7] is T5, DepBRleg (Rhizobium leguminosarum, UniProt J0WHR2, K217M).
T5 construct: gene Rleg4DRAFT_7458; N-terminal His-tag, pET28a (NdeI/HindIII), expressed in E. coli BL21 LOBSTR; about 39 kDa protomer; octamer
Put plainly: tryptophan fluorescence quenching. The class given is binding.
Description: as §1

Data set [8] has as its target T6, DepBRleg (Rhizobium leguminosarum, UniProt J0WHR2, R290N).
T6 construct: gene Rleg4DRAFT_7458; N-terminal His-tag, pET28a (NdeI/HindIII), expressed in E. coli BL21 LOBSTR; about 39 kDa protomer; octamer
Kind of data set: tryptophan fluorescence quenching. The class given is binding.
Description: as §1

The target in data set [9] is DepB from Rhizobium leguminosarum (DepB_(Rleg)) (Rhizobium leguminosarum). Kind of data set: SEC-MALS; P3000 single-pore GPC/SEC column; 20 mM HEPES, 150 mM NaCl, 0.02% NaN3, pH 7; protein at 0.5 mg/mL. (In general: Size exclusion chromatography separates by hydrodynamic size, large species first.)
Substrate in data set [10]: CCCC=O
Put plainly: purified protein. The class given is biochemical, Rhizobium leguminosarum. The following applies: 1 mM NADPH, 100 mM HEPES pH 7.5, 298 K, about 10% DMSO, 25.0 °C.

Substrate in data set [11]: CCCCCC(=O)/C=C/C=O
Put plainly: purified protein. The format is biochemical, Rhizobium leguminosarum. The note with it: 1 mM NADPH, 100 mM HEPES pH 7.5, 298 K, about 10% DMSO, 25.0 °C.

Substrate in data set [12]: CCCCCC=O
Put plainly: purified protein. The note with it: 1 mM NADPH, 100 mM HEPES pH 7.5, 298 K, about 10% DMSO, 25.0 °C. The class given is biochemical, Rhizobium leguminosarum.

Substrate in data set [13]: NC(=O)C1=CN([C@@H]2O[C@H](COP(=O)(O)OP(=O)(O)OC[C@H]3O[C@@H](n4cnc5c(N)ncnc54)[C@H](OP(=O)(O)O)[C@@H]3O)[C@@H](O)[C@H]2O)C=CC1
Put plainly: purified protein. The class given is biochemical, Rhizobium leguminosarum. The note with it: 10 mM DL-glyceraldehyde, 100 mM HEPES pH 7.5, 298 K, 25.0 °C, varied: cofactor.

Substrate in data set [14]: O=C1Nc2ccccc2C1=O
Kind of data set: purified protein. The class given is biochemical, Rhizobium leguminosarum. The note with it: 1 mM NADPH, 100 mM HEPES pH 7.5, 298 K, about 10% DMSO, 25.0 °C.

Substrate in data set [15]: O=CC(O)CO
Kind of data set: purified protein. The format is biochemical, Rhizobium leguminosarum. The following applies: 1 mM NADPH, 100 mM HEPES pH 7.5, 298 K, about 10% DMSO, 25.0 °C.

Substrate in data set [16]: NC(=O)C1=CN([C@@H]2O[C@H](COP(=O)(O)OP(=O)(O)OC[C@H]3O[C@@H](n4cnc5c(N)ncnc54)[C@H](O)[C@@H]3O)[C@@H](O)[C@H]2O)C=CC1
Kind of data set: purified protein. The note with it: 10 mM DL-glyceraldehyde, 100 mM HEPES pH 7.5, 298 K, 25.0 °C, varied: cofactor.

By Kd is commonly meant the concentration at which binding is half-saturated. Lower therefore signals a tighter complex. As for `NC(=O)C1=CN([C@@H]2O[C@H](COP(=O)(O)OP(=O)(O)OC[C@H]3O[C@@H](n4cnc5c(N)ncnc54)[C@H](O)[C@@H]3O)[C@@H](O)[C@H]2O)C=CC1` [NADH], the figures for the Kd at DepBRleg [1], at DepBRleg [2] and at DepBRleg [3] were 67.3 ± 2.5 µM, 91.2 ± 10 µM and 119 ± 9.8 µM, respectively.
As usually defined, the Km is the substrate concentration at which the rate is half of its maximum. For “DepBRleg (Rhizobium leguminosarum bv. trifolii WSM2297)”, the Km in [4] turned out to be 68.3 ± 14.3 µM.
`C=CC=O` [Acrolein]: the Km at DepBRleg [5] (1 mM NADPH, 100 mM HEPES pH 7.5, 298 K, about 10% DMSO; read-out: Km,app) is 83.3 ± 6.69 µM.
Consider `NC(=O)C1=CN([C@@H]2O[C@H](COP(=O)(O)OP(=O)(O)OC[C@H]3O[C@@H](n4cnc5c(N)ncnc54)[C@H](OP(=O)(O)O)[C@@H]3O)[C@@H](O)[C@H]2O)C=CC1` [NADPH], for which the Kd on DepBRleg [1] came out at 11.4 ± 0.84 µM; on DepBRleg [6], 68.6 ± 8.7 µM; at DepBRleg [7] it was 74.1 ± 4.6 µM; at DepBRleg [2] it was 97.9 ± 13 µM; at DepBRleg [3], 123 ± 6.2 µM; at DepBRleg [8], 59.5 ± 4.2 µM.
By stoichiometry N is commonly meant a count of units in the complex or per binding partner. In [9], “DepB from Rhizobium leguminosarum (DepB_(Rleg)) (enzyme)” returned a stoichiometry N of 8.
As to `O=C1C=C2C(=CCOC2O)O1` (stereo not drawn) [Patulin], the Km on DepBRleg [5] (read-out: Km,app; 1 mM NADPH, 100 mM HEPES pH 7.5, 298 K, about 10% DMSO) came to 678 ± 85.5 µM.

B1: DepBRleg (Rhizobium leguminosarum bv. trifolii WSM2297) (protein)
chain: MDYRKLGPSGTVVTAYCLGTMTFGAEADEAASHKLLDDYFAWGGNFIDTADVYSAGKSEEIIGRWLKARPTEARQAIVATKGRFPMGNGPNDIGLSRRHLSQALDDSLRRLGLEQIDLYQMHAWDALTPIEETLRFLDDAVSSGKIGYYGFSNYVGWHIAKASEIAKARGYTRPVTLQPQYNLLMRDIELEIVAACQDAGMGLLPWSPLGGGWLTGKYKRDEMPTGATRLGENPNRGGESYAPRNAQERTWAIIGTVEEIAKARGVSMAQVALAWTAARPAITSVILGARTPEQLADNLGAMKVELSGEEMARLNEVSAPQPLDYPYGKGGINQRHRKIEGGR
One may read the kcat as the maximal rate divided by the concentration of active sites. B1: the Km in the data set “purified protein [10]” amounted to 617 ± 33.5 µM; in “purified protein [11]” it was 1020 ± 136 µM; in “purified protein [12]” it was 1230 ± 231 µM; in “purified protein [13]”, 15.2 ± 1.41 µM; in “purified protein [14]”, 1780 ± 410 µM; in “purified protein [15]”, 3890 ± 516 µM. Besides, in “purified protein [16]”, the Km worked out at 1560 ± 399 µM. In addition, the kcat in “purified protein [10]” turned out to be 0.410 ± 0.00922 s⁻¹; in “purified protein [11]”, 7.90 ± 0.678 s⁻¹; in “purified protein [12]”, 0.303 ± 0.0269 s⁻¹; in the data set “purified protein [13]” it was 0.337 ± 0.00757 s⁻¹; in “purified protein [14]” it was 6.43 ± 0.920 s⁻¹; in “purified protein [15]”, 0.782 ± 0.0803 s⁻¹. Moreover, the kcat in the data set “purified protein [16]” worked out at 0.0242 ± 0.00344 s⁻¹.
